Here are results for one substance from PMC5345815.

In this test the target is recombinant gp41 of HIV-1 (ectodomain, amino acids 533-684, from clone pNL4-3), secreted from 293 cells (HIV-1 (infectious molecular clone pNL4-3)). As to the kind of experiment: native gel or EMSA; Novex Native PAGE 4-20% Tris-Glycine gradient gel of purified gp41, Western blot with 2F5; single band below the 170 kDa marker.

Consider “recombinant gp41 of HIV-1 (ectodomain, amino acids 533-684, from clone pNL4-3), secreted from 293 cells (domain or fragment)”, for which the stoichiometry N came out at 3.
